Reference: US20110086026A1 (ROCHE PALO ALTO, published 2011)
Where a chain is given by its changes, count along the chain named. Each block holds one binder with its values, some of them ahead of it.

Assays:
[1] = molecular target: FcγRIIIa (CD16) on Natural Killer (NK) cells (UniProt P08637); experiment: FACS on NK cells in PBMC, maximum binding at 20 µg/ml
[2] = molecular target: T1, hIL-4Rα:hFc chimeric protein (R&D Systems, UK) (human, UniProt P24394 26-232); experiment: ELISA, immobilized hIL-4Rα:hFc, detection with anti-human kappa-POD, OD 405
T1 construct: Bought; not shown: human Fc (hFc) of the bought chimera
T1 sequence (looked up): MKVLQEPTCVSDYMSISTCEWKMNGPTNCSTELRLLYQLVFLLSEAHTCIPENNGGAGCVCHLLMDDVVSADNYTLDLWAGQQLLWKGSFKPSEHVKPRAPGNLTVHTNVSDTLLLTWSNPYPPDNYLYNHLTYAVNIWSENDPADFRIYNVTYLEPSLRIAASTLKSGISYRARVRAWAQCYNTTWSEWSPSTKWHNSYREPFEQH
Description: (§1) Chimeric proteins hIL-13Rα2:hFc and hIL-4Rα:hFc (R&D Systems, UK) were dissolved in PBS (1 μg/ml) and allowed to adsorb to microtiter plates (NUNC Maxisorb) by incubation over night at 4° C. After washing the plates with washing buffer (WB=0.9% NaCl; 0.1% Tween® 20) unspecific binding sites were blocked by addition of 100 μl incubation buffer (IB=PBS with 1% crotein C and 0.1% Tween® 20) and incubation for 30 min at room-temperature (RT). Then serially diluted HuMab and control antibodies (100 μl/well; dilutions in IB) were added and incubated for 1 hour at RT. The plates were again washed and bound antibody was detected by incubation with peroxidase conjugated rabbit anti-human kappa (DAKO, Denmark) in a final dilution of 1:500 in IB. After incubation for 1 h at RT and a subsequent washing step, the plates were developed with ready-to-use ABTS® solution (Roche Diagnostics GmbH, DE) at RT in the dark. Absorbance was measured at 405 nm after absorbance of the highest concentration reached a sufficient OD.

[3] = molecular target: T2, hIL-13Rα2:hFc chimeric protein (R&D Systems, UK) (human, UniProt Q14627 27-343); experiment: ELISA, immobilized hIL-13Rα2:hFc, detection with anti-human kappa-POD, OD 405
T2 construct: Bought; not shown: human Fc (hFc) of the bought chimera
T2 sequence (looked up): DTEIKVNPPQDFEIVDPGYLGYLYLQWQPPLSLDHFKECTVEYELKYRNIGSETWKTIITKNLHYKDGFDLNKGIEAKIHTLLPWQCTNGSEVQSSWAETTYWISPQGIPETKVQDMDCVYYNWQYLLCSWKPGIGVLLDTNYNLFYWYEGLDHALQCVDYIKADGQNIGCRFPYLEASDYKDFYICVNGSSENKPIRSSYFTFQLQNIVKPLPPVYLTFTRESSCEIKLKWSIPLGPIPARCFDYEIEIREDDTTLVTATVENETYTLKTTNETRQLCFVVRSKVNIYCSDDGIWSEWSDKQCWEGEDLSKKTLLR
Description: as §1

[4] = molecular target: T3, hIL-13Rα1:hFc chimeric protein (R&D Systems, UK) (human, UniProt P78552 22-343); experiment: ELISA, immobilized hu IL-13Ra1:Fc, detection with anti-human kappa-POD, OD 405
T3 construct: extracellular domain; Bought; also called chimeric hIL-13Rα1:hFc; not shown: human Fc (hFc) of the bought chimera
T3 sequence (looked up): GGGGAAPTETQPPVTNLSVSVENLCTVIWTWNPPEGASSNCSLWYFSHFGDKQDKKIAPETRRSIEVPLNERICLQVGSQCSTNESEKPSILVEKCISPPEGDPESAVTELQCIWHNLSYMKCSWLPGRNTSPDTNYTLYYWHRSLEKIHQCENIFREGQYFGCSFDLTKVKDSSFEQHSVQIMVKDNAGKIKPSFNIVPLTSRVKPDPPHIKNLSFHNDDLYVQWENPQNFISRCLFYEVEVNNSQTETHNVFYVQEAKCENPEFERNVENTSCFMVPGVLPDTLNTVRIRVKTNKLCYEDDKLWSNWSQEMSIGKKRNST

[5] = molecular target: FcγRIIIa (CD16) on Natural Killer (NK) cells (UniProt P08637); experiment: FACS on NK cells in PBMC, 20 µg/ml, with 20 µg/ml of the blocking anti-CD16 clone 3G8 as competitor
[6] = molecular target: T4, extracellular domain of hIL-13Rα1 cleaved from hIL-13Rα1:hFc chimeric protein (human, UniProt P78552 22-343); experiment: SPR Biacore 3000, CM5 chip, HuMab captured by anti-hFcγ, cleaved hIL-13Rα1 as analyte, bivalent analyte model
T4 construct: extracellular domain; also called Cleaved hIL-13Rα1 molecules (MW 40 kDa)
T4 sequence (looked up): T3 sequence (looked up)
Description: (§2) In these experiments, the affinity of the original IgG1 derived from hybridoma was compared with the affinities of the recombinant variant IgG1-Ala-Ala. For interaction analysis, a Biacore 3000 instrument was used. Running and reaction buffer was HBS-P (10 mM HEPES, 150 mM NaCl, 0.005% polysurfactant P, pH 7.4) at 25° C. Capturing antibody molecules (anti-hFcγ) were amine-coupled at a concentration of 20 μg/ml at a flow rate of 5 μl/min for 20 minutes. HuMabs were injected at concentrations of 10 μg/ml at a flow rate of 10 μl/min for 1 minute. Cleaved hIL-13 Rα1 molelcules (analyte) were injected for five minutes at eight concentrations between 1.56 nM and 200 nM and washed with HBS-P for five minutes. Regeneration of the surface was accomplished by two injections of 100 mM HCl for 1 min each. The chip, assay format and sequence of injections and kinetic data correspond to the description in Table 4. Kinetic data were calculated by fitting kinetic data to a bivalent analyte binding model.

[7] = molecular target: T4, extracellular domain of hIL-13Rα1 …; experiment: SPR Biacore 3000, CM5 chip, HuMab captured by anti-hFcγ, cleaved hIL-13Rα1 as analyte, bivalent analyte model (ka1)
Description: as §2

[8] = molecular target: T4, extracellular domain of hIL-13Rα1 …; experiment: SPR Biacore 3000, CM5 chip, HuMab captured by anti-hFcγ, cleaved hIL-13Rα1 as analyte, bivalent analyte model (kd1)
Description: as §2

Chain of FcγRIIIa (CD16) on Natural Killer (NK) cells (P08637 17-254 limits assumed): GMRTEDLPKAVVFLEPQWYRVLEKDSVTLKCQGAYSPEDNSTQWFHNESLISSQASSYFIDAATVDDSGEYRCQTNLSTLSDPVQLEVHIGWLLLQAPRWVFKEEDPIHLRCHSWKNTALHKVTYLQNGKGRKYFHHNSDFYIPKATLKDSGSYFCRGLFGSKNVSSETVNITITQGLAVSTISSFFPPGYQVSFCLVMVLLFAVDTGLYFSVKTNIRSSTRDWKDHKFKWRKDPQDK

binding result [2]: no binding (tested: 3.3 nM)
binding result [3]: no binding (tested: 3.3 nM)
EC50 (read off the curve) [4]: ~0.4 nM
Kd [6]: 2.7 nM
kon [7]: 133000 M⁻¹ s⁻¹
koff [8]: 0.00036 s⁻¹
B1: HuMab LC5002-005 (antibody, V domains shown)
VH: EVQVLDSGGGLVQPGGSLRLSCTASGFTFRLYTMSWVRQTPGRGLEWVSGISGSGLSTYFADSVKGRFTISRDNSKNTVYLQMNSLRAEDTAVYYCAKEGDWIYFDSWGQGTLVIVSS
VL: DIQMTQSPSSLSASVGDRVTITCRASQGISSWLAWYQQKPEKAPKSLIYAASSLQSGVPSRFSGSGSGTDFTLTISSLQPEDFATYYCQQYNSHPPTFGQGTKLEIK
notes: Only the variable domains are tied to this antibody; also called hu-MAB<h-IL-13Ralpha>LC.5002-005 (DSM ACC2711)
Bmax (MFI) [1]: 581 MFI
Bmax (MFI) [5]: 260 MFI

binding result [2]: no binding (tested: 3.3 nM)
binding result [3]: no binding (tested: 3.3 nM)
EC50 (read off the curve) [4]: ~0.4 nM
B2: HuMab LC5002-003 (antibody, V domains shown)
VH: EVQLLESGGDLIQPGGSLRLSCAASGFTFNIYAMNWVRQAPGKGLEWVSVISGRGITTYYADSVKGRFTISRDNSKNTLYLQMDSLRAEDTAVYYCAKGSSYWTDFDYWGQGTLVTVSS
VL: B1 VL with H94Y, P96W, L104V
notes: Human IgG1 kappa from a HuMab mouse hybridoma; Only the variable domains are tied to this antibody; also called LC50002-003; hu-MAB<h-IL-13Ralpha>LC.5002-003 (DSM ACC2710)
